Data on 13 molecules can be found in PMC314469, “Protein Interaction Networks by Proteome Peptide Scanning” (PLoS Biology, 2004).

What all share (test): SPOT array
In experiment [1] the target is T1, Boi1 SH3 (BOI1_YEAST), P38041.
T1 chain: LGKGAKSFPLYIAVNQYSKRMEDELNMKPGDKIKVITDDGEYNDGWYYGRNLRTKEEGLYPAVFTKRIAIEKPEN

Experiment [2] deals with T2, Boi2 SH3 (BOI2_YEAST), P39969.
T2 chain: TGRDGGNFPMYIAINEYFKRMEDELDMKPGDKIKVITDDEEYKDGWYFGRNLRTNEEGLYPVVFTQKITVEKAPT

In experiment [3] the target is T3, Myo5 SH3 (MYO5_YEAST), Q04439.
T3 chain: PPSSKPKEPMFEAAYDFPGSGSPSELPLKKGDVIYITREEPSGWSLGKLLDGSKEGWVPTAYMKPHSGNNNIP

Experiment [4] deals with T4, Rvs167 SH3 (RV167_YEAST), P39743.
T4 chain: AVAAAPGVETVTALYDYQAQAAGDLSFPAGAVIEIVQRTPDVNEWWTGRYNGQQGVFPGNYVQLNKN

For experiment [5], the target named is Sho1 SH3 (SHO1_YEAST), P40073.
In experiment [6] the target is T5, Yfr024 SH3 (LSB3_YEAST), P43603.
T5 chain: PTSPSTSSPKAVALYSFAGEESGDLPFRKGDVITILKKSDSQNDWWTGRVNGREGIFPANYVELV

Experiment [7] deals with T6, Yhr016c SH3 (YSC84_YEAST), P32793.
T6 chain: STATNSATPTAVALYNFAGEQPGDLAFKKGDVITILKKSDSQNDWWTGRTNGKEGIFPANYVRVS

Experiment [8] has as its target T7, Abp1 SH3 (ABP1_YEAST), P15891.
T7 chain: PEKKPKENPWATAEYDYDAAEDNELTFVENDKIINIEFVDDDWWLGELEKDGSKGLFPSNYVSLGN

Sequence of Sho1 SH3 (SHO1_YEAST), P40073 (P40073 295-366): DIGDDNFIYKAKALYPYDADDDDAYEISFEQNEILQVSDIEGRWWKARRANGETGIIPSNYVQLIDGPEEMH

Regarding NGKDKSRPPRPPPK [YIL095W 742-755], the normalised SPOT signal, Boehringer light units (BLU); mean over the file's lines of this peptide is 664 in experiment [1]; 31.9 in experiment [2]; 2620 in experiment [3]; 127 in experiment [4]; 2640 in experiment [5]; 12900 in experiment [6]. In experiment [7], this molecule showed a normalised SPOT signal, Boehringer light units (BLU); mean over the file's lines of this peptide of 162.
For the molecule NFPQRMMPPPPGLV [YKL204W 475-488], the normalised SPOT signal, Boehringer light units (BLU); mean over the file's lines of this peptide in experiment [1] worked out at 228; in experiment [2], 28.4; in experiment [3], 618; in experiment [4], 67.9; in experiment [5], 74.5; in experiment [6], 679. For the same molecule, in experiment [7], the normalised SPOT signal, Boehringer light units (BLU); mean over the file's lines of this peptide is 95.9.
As to NELVKRFPGHPPLR [YHR108W 109-122], the normalised SPOT signal, Boehringer light units (BLU); mean over the file's lines of this peptide was 733 in experiment [1]; 7.9 in experiment [2]; 300 in experiment [3]; 55.2 in experiment [4]; 37.2 in experiment [5]; 211 in experiment [6]. The molecule also came in with a normalised SPOT signal, Boehringer light units (BLU); mean over the file's lines of this peptide in experiment [7] of 101.
Take YTYSRNEPVIPTKP [YNL139C 1275-1288]: the normalised SPOT signal, Boehringer light units (BLU); mean over the file's lines of this peptide in experiment [8] was 224; in experiment [1], -0; in experiment [2] it was -0; in experiment [3], 210; in experiment [4] it was 68.4; in experiment [5] it was 44.7. Moreover, the normalised SPOT signal, Boehringer light units (BLU); mean over the file's lines of this peptide was found to be 242 in experiment [6] and 15.9 in experiment [7].
In the case of TIEARVHPEPPNKP [YDR330W 403-416], the normalised SPOT signal, Boehringer light units (BLU); mean over the file's lines of this peptide in experiment [8] was 36.2; in experiment [1], 0; in experiment [2] it was 20.8; in experiment [3], 375; in experiment [4], 26.6; in experiment [5], 32.7. In addition, the normalised SPOT signal, Boehringer light units (BLU); mean over the file's lines of this peptide in experiment [6] came out at 44.2; in experiment [7], 1.
On to VASSRTEPSTPSRP [YJL095W 1074-1087], for which the normalised SPOT signal, Boehringer light units (BLU); mean over the file's lines of this peptide in experiment [8] was 184; in experiment [1], 120; in experiment [2], 10.5; in experiment [3], 178; in experiment [4], 76.3; in experiment [5], 62.9. Besides, the normalised SPOT signal, Boehringer light units (BLU); mean over the file's lines of this peptide was 3610 in experiment [6] and 602 in experiment [7].
For NIFQKQLPKMPKEY [YGR252W 122-135], the normalised SPOT signal, Boehringer light units (BLU); mean over the file's lines of this peptide in experiment [1] is 646; in experiment [2] it was 203; in experiment [3] it was 276; in experiment [4] it was 555; in experiment [5] it was 16700; in experiment [6] it was 392. The same molecule yielded a normalised SPOT signal, Boehringer light units (BLU); mean over the file's lines of this peptide in experiment [7] of 4960.
For the molecule NGMPRRIPDYPDAF [Q0045 434-447], the normalised SPOT signal, Boehringer light units (BLU); mean over the file's lines of this peptide in experiment [1] turned out to be 404; in experiment [2], 318; in experiment [3], 223; in experiment [4] it was 338; in experiment [5] it was 28.9; in experiment [6], 1300. Besides, the normalised SPOT signal, Boehringer light units (BLU); mean over the file's lines of this peptide in experiment [7] worked out at 858.
With RPKRRAPPPVPKKP [YIR003W 383-396], the normalised SPOT signal, Boehringer light units (BLU); mean over the file's lines of this peptide in experiment [8] came out at 80000; in experiment [1], 1170; in experiment [2] it was 26.1; in experiment [3], 67400; in experiment [4], 1050; in experiment [5], 5190. The figures for the normalised SPOT signal, Boehringer light units (BLU); mean over the file's lines of this peptide in experiment [6] and in experiment [7] were 6360 and 114, respectively.
As to NGTWKYNPTVPNEL [YPR151C 143-156], the normalised SPOT signal, Boehringer light units (BLU); mean over the file's lines of this peptide in experiment [1] was determined as 72.4; in experiment [2], 24.2; in experiment [3], 173; in experiment [4] it was 87.9; in experiment [5] it was 3.7; in experiment [6] it was 381. In experiment [7], the normalised SPOT signal, Boehringer light units (BLU); mean over the file's lines of this peptide was found to be 22.7.
Take VKPTKLEPENPQKP [YFL054C 234-247]: the normalised SPOT signal, Boehringer light units (BLU); mean over the file's lines of this peptide is 42.5 in experiment [8]; 49.7 in experiment [1]; 8.7 in experiment [2]; 91.3 in experiment [3]; 28 in experiment [4]; 23.8 in experiment [5]. The normalised SPOT signal, Boehringer light units (BLU); mean over the file's lines of this peptide in experiment [6] came to 17; in experiment [7] it was 22.4.
On to NESEKSSPWSPYKV [YBR156C 157-170], for which the normalised SPOT signal, Boehringer light units (BLU); mean over the file's lines of this peptide in experiment [1] is 96.5; in experiment [2], 28.4; in experiment [3] it was 222; in experiment [4] it was 74.7; in experiment [5] it was 26.5; in experiment [6], 408. The molecule further showed a normalised SPOT signal, Boehringer light units (BLU); mean over the file's lines of this peptide in experiment [7] of 30.5.
As to SKDKKTKPTPPPKP [YNL020C 602-615], the normalised SPOT signal, Boehringer light units (BLU); mean over the file's lines of this peptide in experiment [8] was determined as 77200; in experiment [1], 353; in experiment [2], 40.8; in experiment [3], 180; in experiment [4] it was 71.4; in experiment [5] it was 331. For the same molecule, the values for the normalised SPOT signal, Boehringer light units (BLU); mean over the file's lines of this peptide in experiment [6] and in experiment [7] were 211 and 22.7, respectively.
